Measurements published in patent US20120076762A1, “INDUCED PLURIPOTENT STEM CELL GENERATION USING TWO FACTORS AND P53 INACTIVATION” (THE SALK INSTITUTE FOR BIOLOGICAL STUDIES, priority 2009, published 2012).

B1: Bcl-2: mouse Bcl-2 cDNA overexpressed from HIV pBOBI lentiviral vector; BAX antagonist (protein, UniProt P10417 1-236, looked up)
Apoptosis regulator Bcl-2: MAQAGRTGYDNREIVMKYIHYKLSQRGYEWDAGDADAAPLGAAPTPGIFSFQPESNPMPAVHRDMAARTSPLRPLVATAGPALSPVPPVVHLTLRRAGDDFSRRYRRDFAEMSSQLHLTPFTARGRFATVVEELFRDGVNWGRIVAFFEFGGVMCVESVNREMSPLVDNIALWMTEYLNRHLHTWIQDNGGWDAFVELYGPSMRPLFDFSWLSLKTLLSLALVGACITLGAYLGHK
B2: c-Myc: c-Myc retrovirus (pMXs) added to Oct4/Sox2/Klf4 as fourth factor (protein, UniProt P01108 1-454, looked up)
Myc proto-oncogene protein: MDFLWALETPQTATTMPLNVNFTNRNYDLDYDSVQPYFICDEEENFYHQQQQSELQPPAPSEDIWKKFELLPTPPLSPSRRSGLCSPSYVAVATSFSPREDDDGGGGNFSTADQLEMMTELLGGDMVNQSFICDPDDETFIKNIIIQDCMWSGFSAAAKLVSEKLASYQAARKDSTSLSPARGHSVCSTSSLYLQDLTAAASECIDPSVVFPYPLNDSSSPKSCTSSDSTAFSPSSDSLLSSESSPRASPEPLVLHEETPPTTSSDSEEEQEDEEEIDVVSVEKRQTPAKRSESGSSPSRGHSKPPHSPLVLKRCHVSTHQHNYAAPPSTRKDYPAAKRAKLDSGRVLKQISNNRKCSSPRSSDTEENDKRRTHNVLERQRRNELKRSFFALRDQIPELENNEKAPKVVILKKATAYILSIQADEHKLTSEKDLLRKRREQLKHKLEQLRNSGA

What was measured:
[1] = tested on: MEFs; assay: TUNEL staining of apoptotic cells in factor-infected MEFs; assay type: cell-based, mouse; conditions: 2-F, 3-F and 4-F experiments, five days after infection
Method: FIG. 13: Bcl-2 increased the efficiency of reprogramming. (FIG. 13a) MEFs were infected by retroviruses encoding 4 transcription factors (Oct4/Sox2/Klf4/c-Myc), 3 factors (Oct4/Sox2/Klf4), or 2 factors (Oct4/Sox2) with lentivirus encoding Bcl-2. Five days after infection, TUNEL-staining was performed. The percentage of apoptotic cells was analyzed (using at least five independent panels) and represented graphically. Error bars indicate s.d. (FIG. 13b) MEFs were infected by retroviruses encoding 3 factors (Oct4/Sox2/Klf4) in combination with mock or Bcl-2 expressing lentivirus. The fold change in the number of Nanog-positive colonies compared to mock (n=3) is shown. Error bars indicate s.d (n=3).

[2] = tested on: Mouse embryonic fibroblasts (MEFs); assay: Reprogramming of mouse embryonic fibroblasts to iPS cells (Nanog-positive colonies); assay type: cell-based; conditions: MEFs; for Reprogramming efficiency (Nanog-positive colonies / infected cells): 3F (Oct4/Sox2/Klf4), d12-14, error = s.d.; for Direction and grade of change in reprogramming efficiency (arrows): 3F, vs control
From the text: VSV-G viruses were produced in HEK293T cells. For pMX-based and pMSCV-based retroviruses, vectors were transfected using CaPO4 or lipofectamin, following the manufacturers' directions. One day after transfection, culture medium was changed to new medium. For lentivirus, pBOBI-based^34 or pLVTHM-based^37 vectors were transfected by Lipofectamine™ 2000 (Invitrogen) according to the manufacturer's protocol. Six hours after transfection, the DNA-lipofectamine-complex was removed and the medium was replaced the next day. Two days after transfection, the supernatant containing viruses was collected and filtered through a 0.45 μm filter. Mouse iPS cells were induced as previously described^38,39. Briefly, mouse embryonic fibroblasts (passage 3 to 5) were infected (day 0) with pMX-based retroviruses together with pLVTHM-based lentivirus for shRNAs or pBOBI-based lentivirus for Bcl-2. On day 2, cells were passed onto new gelatin-coated plates. Medium was changed every 2 days. On day 12 to 14, cells were fixed for immunofluorescence study. For the Nutlin3a experiments, cells were treated starting from day 4. Reprogramming of human embryonic fibroblasts (IMR90) was done as previously described^2′^3. Briefly, IMR90 fibroblasts (passage 7 to 9) were infected (day 0) with pMSCV-based retroviruses+pLVTHM-based lentiviruses for p53 shRNA. On day 4 or 5, cells were passed onto feeder MEFs. Medium was changed every day. Around 3 weeks after infection, cells were fixed for immunofluorescence studies. Reprogramming of human primary keratinocytes was carried out essentially as described^6. Cells were co-infected with retroviral supernatants containing 3 or 4 reprogramming factors and p53-DD or GFP at a 1:2 ratio. To assess the reprogramming efficiency, cells were trypsinized 3 days after retroviral infection and 10^4 cells were plated onto 6-cm tissue culture dishes on top of irradiated human foreskin fibroblasts with hES cell medium.
The number of Nanog-positive colonies was calculated after immunostaining at d12-14. The total number of Nanog-positive colonies was divided by the number of infected cells. Error numbers indicate s.d. The term “s.d.” refers in the customary sense to standard deviation. The term “s.e.” refers in the customary sense to standard error. Student's t-tests were performed for statistical analysis. p=0.007 (p53-shRNA vs mock, n=4 in each), p=0.0006 (p53−/− vs WT, n=3 in each), p=0.009 (p21-shRNA vs mock, n=4 in each), p=0.0005 (Arf-shRNA vs mock, n=3 in each), p=0.028 (Arf/Ink4a-shRNA vs mock, n=3 in each), p=0.010 (Ctl(solvent) vs Nutlin-3(10 μM), n=3 in each), p=0.045 (3SA/3SA vs WT, n=3 in each), p=0.022 (Bcl-2 vs mock, n=4 in each), and p=0.012 (c-Myc versus mock, n=4 in each).

Row | Molecule | Effect on apoptosis (TUNEL) [1] | Fold increase in reprogramming / Nanog-positive colony formation vs control ([2]; 3-F) [fold] | Reprogramming efficiency (Nanog-positive colonies / infected cells) [2] | Direction and grade of change in reprogramming efficiency (arrows) [2]
1 | B1 | suppressed apoptosis | 4 | 0.268 ± 0.117% vs 0.100 + 0.062% | ↑↑
2 | B2 | – | – | 0.517 ± 0.264% vs 0.114 + 0.054% | ↑↑
